Test results published in patent US20240398896A1, “INFLAMMASOME INHIBITION” (National University of Singapore, priority 2021, published 2024).

What was measured:
[1] = system: peritonitis induced by ASC specks; assay: Peritonitis induced by ASC specks in bat ASC2/rtTA mice; format: in vivo, mouse; conditions: bat ASC2/rtTA vs WT mice, oral Dox 7 days, ASC-mPlum specks i.p., 4 h
IAV = format: cell-based, mouse
Zika virus (ZIKV) = format: cell-based, mouse; conditions: bat ASC2/rtTA vs WT BMDMs, ZIKV MOI=1, 24 h, Dox; FIG. 10F
[2] = target: T1, PYD-PYD interaction of human ASC (Homo sapiens, UniProt Q9ULZ3); assay: NanoBiT inhibition assay of PYD-PYD interaction in HEK293T cells; format: cell-based; conditions: LgBiT/SmBiT-tagged PYD pairs 10 or 1 ng each, bat ASC2-LSSmOrange 10 ng, FIG. 19, 20
T1 construct: Human ASC PYRIN domain (PYD) was PCR amplified; linker […]; expressed in transfected cells; host or cells: HEK293T
T1 sequence (Q9ULZ3 1-91 limits assumed): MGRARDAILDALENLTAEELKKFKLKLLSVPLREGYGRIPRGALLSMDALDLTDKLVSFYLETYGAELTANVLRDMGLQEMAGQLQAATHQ
Text: Plasmids. Vectors were constructed by standard molecular cloning with pcDNA3.1 (+) as the backbone. Restriction enzyme sites used include NheI, AgeI (introduced), HindIII, BamHI, XhoI, and XbaI from 5′ to 3′ sequentially. […]. The N-terminal and C-terminal inserts of human ASC PYD or NanoBiT tags were flanked by AgeI/HindIII and BamHI/XhoI, respectively. The linker (GSSGGGGSGGGGSSG) flanked by HindIII/BamHI and C-terminal His10-tag flanked by XhoI/XbaI was oligo annealed. The gene fragments were introduced into the backbone by single, double, or triple insertions. The resulting vectors were sequenced using CMV-F and BGH-rev primers.
Cell Culture and Transfection. HEK293T cells were cultured in modified Eagle's medium (DMEM) with 10% fetal bovine serum in humidified 37° C. incubator with 5% CO2. Cells were seeded at a density of 3×10^5 cells/mL one day prior to transient transfection using Fugene 6 transfection reagent (Promega) according to the manufacturer's instructions. At 24 h post-transfection, cells are harvested for analyses.
NanoBiT and Inhibition Assay. White opaque plates were coated with 50 μL of 0.001% poly-L-lysine for at least 15 min at 37° C. and air-dried before seeding 3×10^5 cells/mL HEK239T cells. […] Luminescence is immediately quantified using BioTek Cytation 5 with a gain of 135 and an integration time of 1 s.

NLRP3 inflammasome [3] = target: T2, NLRP3 inflammasome (Homo sapiens, UniProt Q9ULZ3); assay: ASC speck and filament formation in HEK293T cells reconstituted with human NLRP3-mCitrine and human ASC-mPlum (ImageStream, confocal); format: cell-based; design: expressed in transfected cells; host or cells: HEK293T
T2 sequence (Q9ULZ3 whole entry): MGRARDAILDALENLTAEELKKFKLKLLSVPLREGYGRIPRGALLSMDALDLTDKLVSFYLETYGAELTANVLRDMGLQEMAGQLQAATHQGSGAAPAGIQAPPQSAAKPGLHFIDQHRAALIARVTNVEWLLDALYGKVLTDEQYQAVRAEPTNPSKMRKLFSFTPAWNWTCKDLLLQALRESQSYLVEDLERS
Method: (§1) Inflammasome activation assays.
ImageStream imaging flow cytometry. […] Nuclei were stained with DAPI.
Confocal imaging. […] At 48 h post-transfection, cells were fixed with 10% formalin for 15 min at room temperature. DAPI (1:2000 dilution) was used for nuclear staining. All samples were then mounted and examined using the Leica TCS SP8 confocal microscope.

NLRP3 inflammasome [4] = target: T3, NLRP3 inflammasome (Mus musculus, UniProt Q9EPB4); assay: Inflammasome activation in LPS-primed BMDMs of bat ASC2/rtTA mice stimulated with MSU crystals; format: cell-based; design: endogenous in cells; host or cells: BMDMs of C57BL/6 wild-type and bat ASC2/rtTA mice; conditions: Dox, LPS 3 h, MSU 16 h, FIG. 6D, 6E
T3 sequence (Q9EPB4 1-193): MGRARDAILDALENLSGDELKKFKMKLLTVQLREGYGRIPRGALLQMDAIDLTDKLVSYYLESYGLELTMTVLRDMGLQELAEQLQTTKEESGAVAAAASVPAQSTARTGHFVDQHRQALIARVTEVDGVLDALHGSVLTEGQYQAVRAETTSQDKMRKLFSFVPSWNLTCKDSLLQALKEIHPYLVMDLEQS
Text: as §1

NLRP3 inflammasome [5] = target: T2, NLRP3 inflammasome; assay: Inflammasome activation in LPS-primed THP-1 macrophages stably expressing ASC2, stimulated with nigericin; format: cell-based; design: endogenous in cells; host or cells: THP-1 macrophages (PMA-differentiated, LPS-primed); conditions: THP-1 macrophages, ASC2-LSSmOrange, LPS 3 h
Text: (§2) Generation of THP-1 and IMACs stable cells. […] Single cell clones were generated for THP-1 cells stably expressing ASC2-LSSmOrange.
as §1
ImageStream imaging flow cytometry.

NLRP3 inflammasome [6] = target: T2, NLRP3 inflammasome; assay: Inflammasome activation in LPS-primed THP-1 macrophages stably expressing ASC2, stimulated with MSU crystals; format: cell-based; design: endogenous in cells; host or cells: THP-1 macrophages (PMA-differentiated, LPS-primed); conditions: LPS 3 h, MSU crystals 4 h
Text: as §2, §1

[7] = target: NLRP1 inflammasome (Homo sapiens); assay: Talabostat-induced inflammasome activation in N/TERT-1 keratinocytes stably expressing ASC2-mCitrine; conditions: N/TERT-1, talabostat 0, 20, 200 μM, 24 h; FIG. 25B
Chain of NLRP1 inflammasome (Homo sapiens) (Q9ULZ3 whole entry): as the sequence (Q9ULZ3 whole entry) above
Method: (§3) Immortalized N/TERT-1 keratinocyte were cultured in KSFM media (Gibco) supplemented with 30 g/ml BPE, 0.1 ng/ml rEGF, and 0.3 mM calcium chloride.
(§4) GP2-293 cells stably expressing gag and pol proteins, were co-transfected with pVSV-G envelope vector and mCitrine-only empty vector, bat or human ASC2-mCitirine pQCXIH vector for 48 h. Supernatants containing retroviruses were collected, centrifuged at 500 g for 10 min. N/TERT-1 cells were transduced with low MOI of retrovirus for 24 h to obtain a single viral copy per transduced cell. 72 h post-transduction, cells were selected by 20 μg/mL Hygromycin B antibiotic for at least 1 week to ensure stable expression. The stable cells were FACS-sorted for equal fluorescent intensity to ensure the same expression levels across cell lines.
(§5) Inflammasome activation assay. N/TERT-1 cells in KSFM without antibiotics were seeded at 1.8×10^5/mL into 96-well plates overnight. Cells were treated with various concentrations (0, 20, 200 μM) of talabostat dissolved in DMSO for 24 h. DMSO concentration is controlled at 0.5% for all treated wells.

NLRP1 inflammasome = NLRP1 inflammasome (Homo sapiens, UniProt Q9ULZ3); assay: as above
Chain of NLRP1 inflammasome (Q9ULZ3 whole entry): as the sequence (Q9ULZ3 whole entry) above
Method: as §3, §4, §5

AIM2 inflammasome = AIM2 inflammasome (Homo sapiens, UniProt Q9ULZ3); assay: Inflammasome activation in LPS-primed THP-1 macrophages stably expressing ASC2, transfected with poly(dA:dT); format: cell-based; design: endogenous in cells; host or cells: THP-1 macrophages (PMA-differentiated, LPS-primed, poly(dA:dT)-transfected); conditions: LPS 3 h, poly(dA:dT) 4 h
Chain of AIM2 inflammasome (Q9ULZ3 whole entry): as the sequence (Q9ULZ3 whole entry) above
Text: as §2, §1

B1: bat ASC2: ASC2 (PYRIN-only protein) of the bat Pteropus alecto, SEQ ID NO:11; expressed from vectors or as Dox-inducible transgene (protein)
chain: MGKKRDAILEALENLTADELKKFKLKLGAAPLRQGFRNIPRGALGPLDAVDLTDKLVAFYCEDYGAELTAVVLRDIGMQEEAERLQGVA
In the case of B1, the “Recruitment of neutrophils (peritoneal lavage)” value ([1]; FIG. 8E) is reported as “suppressed”, the “IL-1β release (peritoneal lavage)” value ([1]; FIG. 8F) is reported as “suppressed” and the “In vitro IL-1β response to IAV infection” value (IAV) is reported as “significantly lower”. The “Viral titres in supernatants” value (IAV) was “no obvious difference”, the “IL-1β secretion triggered by ZIKV” value (Zika virus (ZIKV)) was “substantially inhibited” and the “PYD-PYD protein-protein interaction (NanoBiT luminescence signal)” value [2] was “inhibit PYD-PYD protein-protein interaction”. The “ASC2 filament formation / distribution” value (NLRP3 inflammasome [3]; HEK293T, ImageStream and confocal) was “formed fine and long filaments”, the “Co-localization with human ASC” value (NLRP3 inflammasome [3]; HEK293T, imaging, FIG. 3A) was “co-localization between bat ASC2 and human ASC” and the “ASC speck formation (human NLRP3 inflammasome activation)” value (NLRP3 inflammasome [3]; HEK293T, human NLRP3-mCitrine, human ASC-mPlum, 50 ng ASC2-LSSmOrange, 48 h post-transfection) was “suppressed the activation of human NLRP3”. For the same molecule, the “Potency in inhibiting human NLRP3 inflammasome compared with human ASC2” value (NLRP3 inflammasome [3]; expression normalized by gating equal signal intensity, FIG. 3C) was “significantly more potent”, the “Activation of NLRP3 inflammasome (LDH release, IL-1β)” value (NLRP3 inflammasome [4]) was “suppressed the activation” and the “Pyroptotic cell death (LDH release)” value (NLRP3 inflammasome [5]; nigericin 2 h, compared with human ASC2, FIG. 3E) was “significantly more downstream inhibition”. The “Secretion of IL-1β in the supernatants” value (NLRP3 inflammasome [5]; nigericin 2 h, compared with human ASC2, FIG. 3F) was “significantly more downstream inhibition”, the “Induction of ASC specks” value (NLRP3 inflammasome [5]; nigericin, FIG. 4B, 4C) was “inhibited the induction of ASC specks more potently than human ASC2” and the “Cell death (LDH release)” value (NLRP3 inflammasome [6]; FIG. 4D) was “inhibited”. For the same molecule, the IL-1β secretion (NLRP3 inflammasome [6]; FIG. 4E) was “inhibited”, the “Cell death (LDH release)” value [7] was “reduces cell death” and the IL-1β secretion (NLRP1 inflammasome; N/TERT-1, talabostat 0, 20, 200 μM, 24 h, FIG. 25C) was “reduces IL-1β secretion”. For the same molecule, the “Potency in inhibiting NLRP1 inflammasomes compared with human ASC2” value (NLRP1 inflammasome; human skin cells (N/TERT-1)) was “significantly more potent”, the “Cell death (LDH release)” value (AIM2 inflammasome; FIG. 3G) was “inhibited” and the IL-1β secretion (AIM2 inflammasome; FIG. 3H) was “inhibited”.
